Results published in patent publication US20050182242A1, “Global analysis of protein activities using proteome chips” (priority 2001, published 2005).

System: phospholipids (phosphatidylinositols vs phosphatidylcholine)
Assay: Proteome chip lipid-binding screen, overall analysis of six liposomes (PI/PC specificity)
Details: compared with phosphatidylcholine
Excerpt: FIGS. 4A-4D. Analysis of the phosphatidylinositol-binding proteins. To determine the phosphatidylinositol (“PI”)-binding specificity of 150 positive proteins, their binding signals were normalized against the corresponding binding signals of phosphatidylcholine (“PC”). Based on the ratios (“PI/PC”), the proteins were grouped into four categories: (A) 30 strong and specific, (B) 43 strong and nonspecific, (C) 19 weak and specific, and (D) 58 weak and nonspecific phosphatidylinositol-binding proteins. The intensity represents the PI/PC signal ratio as shown by the scale in the figure. The column, labeled “10^n” to the right of the PI/PC binding ratios indicates the maximum binding signal intensity (open boxes) and its confidence interval (solid horizontal lines); the numbers indicate the log of the values. Boxes in the three columns to the right of the confidence interval column indicate membrane-associated proteins (“Membrane”), kinases (“Kinase”), and uncharacterized ORFs (“Unknown”), respectively.
To identify PI-binding proteins in yeast, liposomes were used as probes because the liposome provides the most relevant physiological condition to assay the interactors. Six types of liposomes were used. Each contains phosphatidylcholine (“PC”) with 1% (w/w) N-(biotinoyl)-1,2-dihexadecanoyl-sn-glycero-3-phosphoethanolamine, triethylammonium salt (biotin DHPE). The biotinylated lipid serves as a label that can be detected by Cy3-streptavidin (21). In addition to PC, the five other liposomes contain either 5% (w/w) PI(3)P, PI(4)P, PI(3,4)P2, PI(4,5)P2, or PI(3,4,5)P3 (FIG. 3A).
The protein-liposome interaction was assayed as follows. Appropriate amounts of each lipid in chloroform were mixed and dried under nitrogen. The lipid mixture was resuspended in TBS buffer by vortexing. The liposomes were created by sonication. Blocked proteome chips were washed three to five times in PBS buffer, and the extra liquid on the glass surface was removed by tapping the slides vertically on a KIMWIPE™. 200 μl of liposome solution was added to the proteome chip and immediately covered by a hydrophobic plastic cover slip (GRACE BIO-LAB™, USA). After trapped air bubbles were removed, the chip was incubated in a humidity chamber at RT for one hour. To remove the cover slip, the chip was immersed into large volume of PBS buffer (50 ml), so that the slip would float away. The chip was then moved to a second PBS bath (>50 ml) and washed 3×5 min with shaking at RT. After removing extra liquid on the surface of the chip, about 100 μl of Cy3 or Cy5 conjugated streptavidin (PIERCE™, USA; 1:2000 to 1:4000 dilution) was added to the surface and covered by a hydrophobic plastic cover slip (GRACE BIO-LABS™, USA). The chip was incubated for greater than 30 min in the dark at RT. The chip was then washed as described above. To completely remove the liquid on the chip, the chip was spun to dryness at 1500-2000 rpm for 5-10 min at RT.
An algorithm was devised to assist in the identification of positive signals (42). Fifty-two (35%) of the interactors (i.e., lipid-binding proteins) correspond to uncharacterized proteins thus ascribing the first biochemical activities to those proteins.
The interactors (i.e., phospholipid-binding proteins) were grouped in several ways (42). First, the interactors were sorted according to whether they bound lipids strongly or weakly, based on the phospholipid-binding signal relative to the amount of GST (FIG. 4). Slightly more (72%) of the strong lipid binding proteins (FIGS. 4A and 4B) were characterized relative to the weakly binding proteins (54%) (FIGS. 4C and 4D). Many of the strong lipid-binding proteins are membrane-associated, or are predicted to be associated with membranes, whereas fewer of the weaker binding proteins appear to be associated with membranes (FIG. 4, “Membrane” column). […] Moreover, thirteen of the seventeen protein kinases bind very strongly to the phospholipids. […]

B1: MY04: yeast class V myosin heavy chain, GST-HisX6 fusion (protein, UniProt P32492 1-1471, looked up)
Myosin-4: MSFEVGTKCWYPHKEQGWIGGEVTKNDFFEGTFHLELKLEDGETVSIETNSFENDDDHPTLPVLRNPPILESTDDLTTLSYLNEPAVLHAIKKRYMNGQIYTYSGIVLIAANPFDKVDHLYSREMIQNYSSKRKDELEPHLFAIAEEAYRFMVHEKANQTVVVSGESGAGKTVSAKYIMRYFASVQESNNREGEVEMSQIESQILATNPIMEAFGNAKTTRNDNSSRFGKYLQILFDENTTIRGSKIRTYLLEKSRLVYQPETERNYHIFYQILEGLPEPVKQELHLSSPKDYHYTNQGGQPNIAGIDEAREYKITTDALSLVGINHETQLGIFKILAGLLHIGNIEMKMTRNDASLSSEEQNLQIACELLGIDPFNFAKWIVKKQIVTRSEKIVTNLNYNQALIARDSVAKFIYSTLFDWLVDNINKTLYDPELDQQDHVFSFIGILDIYGFEHFEKNSFEQFCINYANEKLQQEFNQHVFKLEQEEYVKEEIEWSFIEFSDNQPCIDLIENKLGILSLLDEESRLPSGSDESWASKLYSAFNKPPSNEVFSKPRFGQTKFIVSHYAVDVEYEVEGFIEKNRDSVSLGHLDVFKATTNPIFKQILDNRELRSDDAPEEQNTEKKIMIPARLSQKKPTLGSMFKKSLGELMAIINSTNVHYIRCIKPNSEKKPWEFDNLMVLSQLRACGVLETIRISCAGFPSRWTFDEFVQRYFLLTDYSLWSGILYNPDLPKEAIVNFCQSILDATISDSAKYQIGNTKIFFKAGMLAFLEKLRTNKMNEICIIIQKKIRARYYRLQYLQTMESIKKCQSQIRSLLVRTRVDHELKTRAAILLQTNIRALWKREYYRAAIGQIIKLQCTCKRKLILDSVNRKFMLMAAVIIQSYIRSYGHKTDYRTLKRSSILVQSAMRMQLARRRYIVLQKEVEERNIRASYGIGLLEEAIEFKNSFILNLEMLNDSYTRLTQLLQGDLSNIPSKQRQEYETIVNGYNDKISKLKTLQVEIMNTLNKKNALKERKKKQSSLIQSHMQSLAAIKGNKPSRLSDEVKSMKQELAFIENVIAQDFTTTYSANKNDKVKGLGIAGQQVKPKLVNVIRRESGNPDLLELLMDLNCYTLEVTEGYLKKVNVTEVNGDNVLGPIHVITTVVSSLVRNGLLIQSSKFISKVLLTVESIVMSLPKDETMLGGIFWLSNLSRLPAFAANQKTLYEANGGDEKDKLTLIYLNDLENETLKVFDKIYSTWLVKFMKHASAHIEIFDMVLNEKLFKNSGDEKFAKLFTFLNEFDAVLCKFQVVDSMHTKIFNDTLKYLNVMLFNDLITKCPALNWKYGYEVDRNIERLVSWFEPRIEDVRPNLIQIIQAVKILQLKISNLNEFKLLFDFWYALNPAQIQAILLKYKPANKGEAGVPNEILNYLANVIKRENLSLPGKMEIMLSAQFDSAKNHLRYDTSAITQNSNTEGLATVSKIIKLDRK
modifications: GST-HisX6 tag
notes: yeast class V myosin heavy chain, GST-HisX6 fusion
  preferential binding of particular phosphatidylinositol lipids: preferentially binds PI(4,5)P2
